Experimental data reported in patent US20020086007A1, “Angiogenesis-inhibiting peptides and proteins and methods of use” (priority 2000, published 2002).

Assays:
HUVECs [1] = test: Localization of endostatin into cells and nuclei (cytosol/nuclei extract, immunoprecipitation, Western blot); type: cell-based, human; settings: 100 ug/ml recombinant endostatin, 30 minutes; FIG. 4
Method: 3 T-75 of HUVECs grown at regular growth condition (about 95% confluent) were treated with 100 ug/ml recombinant endostatin for 30 minutes and rinsed with warm 1XPBS and then trypsinized. The control cells from 3 T-75 were the HUVECs treated with the same concentration of endostatin for 1 second. The trypsinized cells were then washed with cold PBS twice. About 40 μl of cell pellet was obtained from all three T-75 flasks. The cytosol extract and nuclei extract was obtained using a nuclei extraction kit (Pierce Company, Rockford, Ill.). The rabbit polyclonal antibodies against human endostatin (Cytimmune Sciences, College Station, Md.) were used to immunoprecipite endostatin protein present in the extract. The immunoprecipited elution was analyzed on Western blot probed with either the same polyclonal antibodies or the mAb 96-2. […] (FIG. 4).

[2] = test system: tumor induced angiogenesis; settings: systemic therapy; cited from earlier work
[3] = test system: cultured endothelial cells; settings: cited from earlier work
Live HUVECs cells = test: Staining of live endothelial cells with Alexa-labeled endostatin (fluorescence microscopy); type: cell-based, human; settings: 8 ug/ml, 5, 15, 30 and 60 minutes; FIG. 6
Method: Live HUVECs cells were treated with 8 ug/mI Alexa-labeled endostatin for 5 minutes, 15 minutes, 30 minutes and 60 minutes, land washed with M-200 medium and fixed in 3.7% formaldehyde for 5 minutes and cold methanol for 5 minutes. Alexa-labeled endostatin can be visualized under the fluorescent microscope.

HUVECs [4] = test: Staining of fixed endothelial cells with Alexa-labeled endostatin; type: cell-based, human; settings: HUVECs grown at 5 ng/ml VEGF, 40 μg/μl, 30 mins, FIG. 7
Method: HUVECs grown at 5 ng/ml VEGF were fixed in 3.7% formaldehyde for 5 mins. and cold methanol for 5 mins. and then stained with […] Alexa-labeled endostatin for 30 mins.

B1: endostatin: antiangiogenic fragment of a most C-terminal non-collagenous region of a collagen protein (SEQ ID NO: 1) (protein)
chain: HSHRDFQPVLHLVALNSPLSGGMRGIRGADFQCFQQARAVGLAGTFRAFLSSRLQDLYSIVRRADRAAVPIVNLKDELLFPSWEALFSGSEGPLKPGARIFSFDGKDVLRHPTWPQKSVWHGSDPNGRRLTESYCETWRTEAPSATGQASSLLGGRLLGQSAASCHHAYIVLCIENSFMTASK
HUVECs [1]
  localization into cell and nuclei: able to localize into HUVEC cell and nuclei
[2]
  suppression of tumor induced angiogenesis: nearly complete suppression
[3]
  inhibition of endothelial proliferation and angiogenesis: potent and specific inhibitor

B2: Alexa-labeled endostatin: endostatin labeled with Alexa dye, visualized under the fluorescent microscope (conjugate, UniProt P39060 1572-1754, looked up)
Endostatin: B1 chain
modifications: Endostatin Alexa dye label
notes: endostatin labeled with Alexa dye, visualized under the fluorescent microscope
Live HUVECs cells
  staining of live cells: stains the cytosol and nuclei even as early as at the 5 minute time point
HUVECs [4]
  staining of fixed cells: stained not only the cytoskeleton network, but also stained the nuclei
